Source: the supplement of paper PMC10567573

B1: CDC25A (parent)
chain: KKFRTKSRTWAGEKSKREMYSRLK

Variants of: B1
Assay: protein stability index of a GFP-peptide fusion (GPS, HEK-293T) (PSI 1-6); higher = more stable
Conditions: c terminus: a fixed tail appended
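Further: lentivirally expressed fusions sorted by FACS into six bins by GFP to DsRed ratio, PSI derived from sequencing read proportions per bin multiplied by bin number.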

Variant	protein stability index
KKRRTKSRTWAGEKSKREMYSRLK [F3R]	3.51
KKLRTKSRTWAGEKSKREMYSRLK [F3L]	3.49
KKGRTKSRTWAGEKSKREMYSRLK [F3G]	3.49
KKSRTKSRTWAGEKSKREMYSRLK [F3S]	3.48
KKNRTKSRTWAGEKSKREMYSRLK [F3N]	3.12
KKWRTKSRTWAGEKSKREMYSRLK [F3W]	3.48
KKARTKSRTWAGEKSKREMYSRLK [F3A]	3.28
KKIRTKSRTWAGEKSKREMYSRLK [F3I]	3.06
KKFRTKSTTWAGEKSKREMYSRLK [R8T]	2.95
KKFRTKSATWAGEKSKREMYSRLK [R8A]	3.48
KKFRTKSYTWAGEKSKREMYSRLK [R8Y]	4.25
KKFRTKSVTWAGEKSKREMYSRLK [R8V]	3.32
KKFRTKSRTWCGEKSKREMYSRLK [A11C]	2.73
KKFRTKSRTWTGEKSKREMYSRLK [A11T]	3.22
KKFRTKSRTWNGEKSKREMYSRLK [A11N]	2.91
KKFRTKSRTWSGEKSKREMYSRLK [A11S]	4.42
KKFRTKSRTWIGEKSKREMYSRLK [A11I]	2.77
KKFRTKSRTWYGEKSKREMYSRLK [A11Y]	2.82
KKFRTKSRTWPGEKSKREMYSRLK [A11P]	3.98
KKFRTKSRTWQGEKSKREMYSRLK [A11Q]	3.28
KKFRTKSRTWFGEKSKREMYSRLK [A11F]	2.62
KKFRTKSRTWAGEKSKDEMYSRLK [R17D]	3.6
KKFRTKSRTWAGEKSKQEMYSRLK [R17Q]	3.17
KKFRTKSRTWAGEKSKPEMYSRLK [R17P]	4.04

Variant	protein stability index
KKFRTKSRTWAGEKSKCEMYSRLK [R17C]	3.34
KKFRTKSRTWAGEKSKHEMYSRLK [R17H]	3
KKFRTKSRTWAGEKSKTEMYSRLK [R17T]	3.48
KKFRTKSRTWAGEKSKAEMYSRLK [R17A]	2.77
KKFRTKSRTWAGEKSKKEMYSRLK [R17K]	2.21
KKFRTASRTWAGEKSKREMYSRLK [K6A]	1.88
KKFRTPSRTWAGEKSKREMYSRLK [K6P]	2.93
KKFRTLSRTWAGEKSKREMYSRLK [K6L]	2.36
KKFRTMSRTWAGEKSKREMYSRLK [K6M]	2.91
KKFRTCSRTWAGEKSKREMYSRLK [K6C]	2.71
VKFRTKSRTWAGEKSKREMYSRLK [K1V]	2.65
LKFRTKSRTWAGEKSKREMYSRLK [K1L]	1.95
IKFRTKSRTWAGEKSKREMYSRLK [K1I]	1.89
SKFRTKSRTWAGEKSKREMYSRLK [K1S]	3.22
AKFRTKSRTWAGEKSKREMYSRLK [K1A]	3.59
FKFRTKSRTWAGEKSKREMYSRLK [K1F]	2.37
PKFRTKSRTWAGEKSKREMYSRLK [K1P]	3.25
YKFRTKSRTWAGEKSKREMYSRLK [K1Y]	2.71
WKFRTKSRTWAGEKSKREMYSRLK [K1W]	2.37
DKFRTKSRTWAGEKSKREMYSRLK [K1D]	3.83
KKFRTKCRTWAGEKSKREMYSRLK [S7C]	2.39
KKFRTKKRTWAGEKSKREMYSRLK [S7K]	3.11
KKFRTKPRTWAGEKSKREMYSRLK [S7P]	3.13
KKFRTKWRTWAGEKSKREMYSRLK [S7W]	3.06

Variant	protein stability index
KKFRTKFRTWAGEKSKREMYSRLK [S7F]	2.4
KKFRTKRRTWAGEKSKREMYSRLK [S7R]	3.57
KKFRTKSRTWAGEKSKREMYSRLT [K24T]	2.94
KKFRTKSRTWAGEKSKREMYSRLG [K24G]	2.52
KKFRTKSRTWAGEKSKREMYSRLI [K24I]	2.32
KKFRTKSRTWAGEKSKREMYSRLC [K24C]	2.08
KKFRTKSRTWAGEKSKREMYSRLL [K24L]	2.31
KKFRTKSRTWAGEKSKREMYSRLQ [K24Q]	2.58
KKFRTKSRTWAGEKSKREMYSRLP [K24P]	3.49
KKFRTKSRTWAGEKSKREMYSRLN [K24N]	3.32
KKFRTKSRTWAGEKSKREMYSRLF [K24F]	2.06
KKFRTKSRTWAGEKSKREMYGRLK [S21G]	3.32
KKFRTKSRTWAGEKSKREMYDRLK [S21D]	2.95
KKFRTKSRTWAGEKSKREMYLRLK [S21L]	3.38
KKFRTKSRTWAGEKSKREMYIRLK [S21I]	2.25
KKFRTKSRTWAGEKSKREMYQRLK [S21Q]	2.54
KKFRTKSRTWAGEKSKREMYNRLK [S21N]	3.21
KKFRTKSRTWAGEKSKREMYFRLK [S21F]	2.7
KKFRYKSRTWAGEKSKREMYSRLK [T5Y]	3.24
KKFRWKSRTWAGEKSKREMYSRLK [T5W]	3.02
KKFRIKSRTWAGEKSKREMYSRLK [T5I]	2.5
KKFRNKSRTWAGEKSKREMYSRLK [T5N]	3.56
KKFRGKSRTWAGEKSKREMYSRLK [T5G]	3.33
KKFRFKSRTWAGEKSKREMYSRLK [T5F]	3.25

Variant	protein stability index
KKFRTKSRTWAGEKSSREMYSRLK [K16S]	3.04
KKFRTKSRTWAGEKSPREMYSRLK [K16P]	3.11
KKFRTKSRTWAGEKSWREMYSRLK [K16W]	2.1
KKFRTKSRTWAGEKSLREMYSRLK [K16L]	3.16
KKFRTKSRTWAGEKSAREMYSRLK [K16A]	2.62
KKFRTKSRTWAGEKSDREMYSRLK [K16D]	3.24
KKFRTKSRTWAGEKSVREMYSRLK [K16V]	2.78
KKFRTKSRTWAGEKSKREMISRLK [Y20I]	3.13
KKFRTKSRTWAGEKSKREMMSRLK [Y20M]	3.29
KKFRTKSRTWAGEKSKREMCSRLK [Y20C]	3.97
KKFRTKSRTWAGEKSKREMWSRLK [Y20W]	2.37
KKFRTKSRTWAGEKSKREMKSRLK [Y20K]	4.45
KKFRTKSRTWAGEKSKREMTSRLK [Y20T]	3.41
KKFRTKSRTWAGEKSKREMFSRLK [Y20F]	2.88
KKFRTKSRTWAGEKSKREMVSRLK [Y20V]	2.92
KKFRTKSRTWAGEKSKREMPSRLK [Y20P]	4.12
KKFRTKSRTHAGEKSKREMYSRLK [W10H]	3.76
KKFRTKSRTQAGEKSKREMYSRLK [W10Q]	4.03
KKFRTKSRTPAGEKSKREMYSRLK [W10P]	3.55
KKFRTKSRTSAGEKSKREMYSRLK [W10S]	2.79
KKFRTKSRTIAGEKSKREMYSRLK [W10I]	2.97
KKFRTKSRTCAGEKSKREMYSRLK [W10C]	4.02
